Experimental data as given in the DeepSol protein solubility set.

experiment: soluble on expression in E. coli; label from the status in PepcDB or PDB records

Sequence | soluble on expression in E. coli
MLMPKRTKYRKQMKGRNRGKAHRGNSIAFGDIAIKAIEHGRIDSRQIESARVAMTRHIKRAGKVWIRVFPDKPLTAKPLETRMGKGKGSVEKWVMNIKPGRIVYEMLGIEEGLAREALALAQSKLPFKTKIVTCESENEIYLEHHHHHH | soluble
MNKLQSYFIASVLYVMTPHAFAQGTVTIYLPGEQQTLSVGPVENVAQLVTQPQLRDRLWWPGALLTDSAVKAKALKDYQHVMAQLASWEAEADDDVAATIKSVRQQLLNLNITGRLPVKLDPDFVRVDENSNPPLVGNYTLYTVQRPVTITLLGAVSGAGQLPWQAGRSVTDYLQDHPRLAGADKNNVIVITPEGETVVAPVALWNKRHVEPPPGSQLWLGFSAHVLPEKYADLNDQIVSVLTQRVPD | soluble
MSSVPSAHSEIVGALYRDHRGWLLAWLRRNVACPQRAQDLSQDTFVRLLGRDELQLPREPRAFLATIAKGLMFDYFRRAALEQAYLGELLQVPEAEQPSPEEQLLILEDLKAIDRMLGTLSSKARAAFLYNRLDGLSHGEIAERLGVSVSRVRQYLAQAVRQCYVALYGEPT | not soluble
MVQALPSNIGIQQVTLKVADLDKMVNFYTKTIGLKLLKQGEGRAWLAPQGTNDAILVLKELTAGEENQGTTGLYHIAFLLPTRKDLGNMLLWLLQENVQIGAADHGYSEALYLSDPENNGIEIYWDKPEEVWDIRPNGEIIGVTEELDGDSLAAEADGHWLGISEGSKIGHIHLKVADLDATETFYKNLGFGLKSNFGQQAKFFAAGQYHHHIGTNTWSGKQLPTIQENQFGLENYTFRLPTAADLEIVQANAEEAKLHFIAKDHLLALEDPSGMIIQFTY | not soluble
MSGQKCSAYTDTMGTCTICSIFAPHSQLFICRHEGCKYALKQSSSIMTPAMFYRKEKVICGKCAFVGPHKMHKDFVSKAQKLAFKIASQEIGVRLQMEFDVLSELHEDNPVDYAIILSGHEKLEKIDVIKYLSQSKTIVEWNLRQRQLNEAIQFIKFNRIEGYHRVKELANKMLDAFYDANATIERDSENGSPQSDDDHLSDVSHECQGSSRSSISSKKSSIHSTSTTGTVILNQNPDNALSCSEVSGGDELKNKSSTNEGYTESMTETVITISRRFEMCIRRESPEDAVSRIADYLDDRIESNDQKKAIAEYMERNYSIKWPRQFQ | not soluble
MTKTWEQLSAIQPIGVKMLMNSIAKERISHAYLLEGEKGTGKFATAIQMAKSFLCSQRNRVEPCHVCTNCKRIDSGNHPNLHIVKPDGLSIKKQQIHDLQEEFSKTGLEANKKVYIIEHADRMTANAANALLKFLEEPSSDTTAILLTEQSHQILNTILSRCQVVTFRPLPTESLIRRLQDEGITVSLSTLAAQLTNSFDEALTLCNDEWFAQARALVIKLCEALEKDKASIFFVQEKWGKHFGEKEQLQQGLDMLLLIYKDLLYVQLGEEDRLVFREQKEMFESFSYAQKRIVSALFNILEAKNRINANVNAQLVFEQLVLRLQEG | not soluble
MGSDKIHHHHHHMENKSAVQLYLELLKKTILFEIWLEYEPYLPASLHISKELSYEPVTVPLPLFLKQYVENHNLKIVNPNVSNNERQGGKDWPRAAHSMVGRKRMNQLQEAMETVVRENIEGDFIETGVWRGGSCIFMNGFLQANNIYYRTVWVADSFEGLPAPNLEQYPKDYGDYLHTFDYLRVSLETVQENFRKYDLLNDQVKFLKGWFKDTLPSAPVEKIAIARLDGDMYESTMDSLVNLYDKVSTGGFIIIDDYGLITCAEAVTDFRSERNIKTPMTQIDDFGIYWRKE | not soluble
DFEIMAPVGSRESLAAAIQAGADSIYFGIESLNMRARSASTFTVNDLREIAQICDKHGIKSYLTINTIIYDEDIALMRTIVDAAKEAGISAVIAADVAVMAYCCEVGQEVHLSTQLNISNAGALKFYARFADVVVLARELNLKQVRVIYDTIQKEQIKGPNGELVRIEMFCHGALCMAVSGKCYLSLHEMNASANRGACMQICRRAYDVKDKESDIELEVDNKYIMSPKDLKTIHFMDEMIEAGVRVFKIEGRARGPEYVRTVVECYKEAICSYLEGTFTEEKKQAWDERLKTVFNRGFWNGYYLGQRLGEWSKNYGSEATERKVYVGKGIKYFSNIGVAEFLVEAAEMKVGDKLLITGPTTGAVFLTLDEARVDLKPVDVVRKGQHVSFKVPDKVRPSDKLYKLVSPEDLK | not soluble
MSLESAVKAESAGKSVAASLKARLEKTYSAQDLKVLSVSETPVKGIYEVVVSGRQIIYTDAEGGYMFVGELINIDTRKNLTEERAADLNKIDFASLPLDKAIKEVRGNGKLKVAVFSDPDCPFCKRLEHEFEKMTDVTVYSFMMPIAGLHPDAARKAQILWCQPDRAKAWTDWMRKGKFPVGGSICDNPVAETTSLGEQFGFNGTPTLVFPNGRTQSGYSPMPQLEEIIRKNQQEGHHHHHH | soluble
